The text below walks through data of article PMC11963761, “Structural basis for control of integrative and conjugative element excision and transfer by the oligomeric winged helix–turn–helix protein RdfS”.

One may read the stoichiometry N as the number of molecules, sites or subunits per partner or assembly.

Data set [1] concerns the target RdfS_(13–89), α1-truncated RdfS (Mesorhizobium japonicum R7A). The data set can be described thus: SEC; analytical gel filtration, Superdex 75 10/300 GL, 50 mM Tris–HCl, 300 mM NaCl, 5% (v/v) glycerol, pH 7.4, 4°C, 0.5 ml/min; protein at ∼7 mg/ml, 50 μl injected; no DNA.
Data set [2] has as its system RdfS13-89 (Mesorhizobium japonicum R7A (ICEMlSymR7A)). The experiment in a line: EMSA. The settings on record: EMSA: DNA master mix 50 mM Tris-HCl, 150 mM NaCl, 5% glycerol, pH 7.4, 1 unit poly[d(I-C)] (10 of 20 uL), 10 nM DNA; SPR: ReDCaT on Biacore T200, 1 uM protein ….
The target of data set [3] is T1, RdfS (Mesorhizobium japonicum R7A (ICEMlSymR7A)) (UniProt Q7AL96).
T1 sequence: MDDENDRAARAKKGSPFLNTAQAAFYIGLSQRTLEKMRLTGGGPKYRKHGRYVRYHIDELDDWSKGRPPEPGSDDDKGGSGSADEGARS
The data set can be described thus: EMSA. The conditions noted are these: EMSA: DNA master mix 50 mM Tris-HCl, 150 mM NaCl, 5% glycerol, pH 7.4, 1 unit poly[d(I-C)] (10 of 20 uL), 10 nM DNA; SPR: ReDCaT on Biacore T200, 1 uM protein …. (In general: Mobility shift assays separate free from complexed probe on a gel.)

In data set [4] the target is RdfS, recombination directionality factor of ICEMlSym^R7A (6H tag removed) (Mesorhizobium japonicum R7A). The experiment in a line: SEC; analytical gel filtration, Superdex 75 10/300 GL, 50 mM Tris–HCl, 300 mM NaCl, 5% (v/v) glycerol, pH 7.4, 4°C, 0.5 ml/min; protein at ∼7 mg/ml, 50 μl injected; no DNA. (Size exclusion chromatography separates by hydrodynamic size, large species first.)

Data set [5] addresses 6H-RdfS, N-terminal hexahistidine fusion of RdfS (Mesorhizobium japonicum R7A). The data set can be described thus: SEC-SAXS; SEC-SY-SAXS (Australian Synchrotron) of 6H-RdfS bound to the 40-bp dsDNA attP_8; mass of the nucleoprotein complex from scattering.
Another data set has as its target T2, 6H-RdfS (Mesorhizobium japonicum R7A …, UniProt Q7AL96 1-89).
T2 sequence: T1 sequence
The experiment in a line: SEC-SAXS; 4:1 protein:dsDNA; EMSA: DNA master mix 50 mM Tris-HCl, 150 mM NaCl, 5% glycerol, pH 7.4, 1 unit poly[d(I-C)] (10 of 20 uL), 10 nM DNA; SPR: ReDCaT on Biacore T200, 1 uM protein. The settings on record: protein: recombinant; tags: N-terminal 6xHis; chain copies: 4; blunt.

In turn, “RdfS_(13–89), α1-truncated RdfS (domain or fragment)” displayed a stoichiometry N in data set [1] of 2. attP 283 bp returned a binding signal (% of RdfS affinity) in data set [2] of 50. As to “GCCGGCTCAAGCCCTCGCGCCGCAACTCGGCGCGGGGGTTCCCGCCGACGCTCGCCCGAAGGGGCGGCGAAAACTCCCACCCGACTCTTCGCCCGTCCCCACGACGACCTCGTTCGCCGATCCTCGCGGTTGCTTGTCCGAAGCGAAACGAGGACC (double strand) [PrdfS 162 bp]”, the binding entry in data set [3] is “binds”. Take “RdfS, recombination directionality factor of ICEMlSym^R7A (6H tag removed) (natural protein)”: the stoichiometry N in data set [4] stood at 4.

In data set [5], “6H-RdfS, N-terminal hexahistidine fusion of RdfS (natural protein)” came in with a stoichiometry N of 4.

B1: attP_8 40-mer (dsDNA)
DNA 1: GAATTTCGGCGCAGTTGGTCCAACGAGGCGGGGGGCTGGT
DNA 2: ACCAGCCCCCCGCCTCGTTGGACCAACTGCGCCGAAATTC
In the case of B1, the binding result in the data set with 6H-RdfS is on record as “binds”.
